± gives the standard deviation.
Assay: protein stability index of a GFP-peptide fusion (GPS, HEK-293T) (PSI 1-6); higher = more stable
[1] = treatment: DMSO, c terminus: a fixed tail appended
[2] = treatment: MLN4924 1 uM, 8 h, c terminus: a fixed tail appended
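Also: 24-mer peptide tiles fused after GFP, lentivirally expressed, FACS-sorted into six equal bins by GFP/DsRed ratio, decoded by Illumina sequencing, PSI is the read-weighted mean bin number.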

| Sequence | protein stability index [1] | protein stability index [2] | protein stability index (treatment: DMSO, c terminus: native) | protein stability index (treatment: MLN4924 1 uM, 8 h, c terminus: native) |
| --- | --- | --- | --- | --- |
| GQDTFCQGKADGLYPNPRERSSFY [CHIT1] | 3.71 ± 0.28 | 3.57 ± 0.35 | – | – |
| DGGSSLASGSTQRQPPPPAPQHPQ [FBXO28] | 5.22 ± 0.34 | 5.18 ± 0.35 | – | – |
| IYRKYRKLIESELSYFVIVYSVM [FBXO39] | – | – | 2.87 ± 0.62 | 2.89 ± 0.44 |
| VPAGEEEGELGEYRQKLLMFLEIS [VPS39] | 3.39 ± 0.16 | 3.68 ± 0.22 | – | – |
| ARYYLVQGLIEDCQLALQQKRETL [KCTD13] | 2.11 ± 0.19 | 2.19 ± 0.24 | – | – |
| LDFKDLLESEDWEEDNWDPELMEH [TEX19] | 4.86 ± 0.091 | 4.94 ± 0.26 | – | – |
| MSFPHFGHPYRGASQFLASASSST [IRX6] | 3.25 ± 0.21 | 3.13 ± 0.25 | – | – |
| AKEKLESFIKNSDSFDKFEFCEPA [PCMTD1] | 4.06 ± 0.27 | 3.96 ± 0.31 | – | – |
| APGYDPETVTVTVGPAEPTLVNFH [CPN1] | 3.89 ± 0.32 | 3.99 ± 0.35 | – | – |
| HLEGYHGTAGDSMSYHSGSVFSAR [TNXB] | 3.16 ± 0.43 | 3.47 ± 0.44 | – | – |
| LLPDQARGEVPWSPELGRPHDRSQ [ZNF263] | 4.58 ± 0.17 | 4.86 ± 0.091 | – | – |
| ALERRRRALQEEERAAAQARRELQ [ZBED3] | 5.18 ± 0.12 | 4.86 ± 0.19 | – | – |
| TKSHIMLVQRQMSVIEEDLEEFQL [NECAB1] | 3.22 ± 0.21 | 3.12 ± 0.21 | – | – |
| LRRESTSQKEMDKAETKTKKAAES [FCHO1] | 5.45 ± 0.28 | 5.46 ± 0.13 | – | – |
| YGSFHQQYWLDGKIIAVGVIDILP [ATE1] | 3.36 ± 0.39 | 3.16 ± 0.67 | – | – |
| IFFDDLDSPSKEEVFRFVQSCARA [CPOX] | 2.45 ± 0.38 | 2.69 ± 0.65 | – | – |
| PLAVEEDASSSTSTSSSFPSSFPS [MAGEA10] | 5.31 ± 0.23 | 5.41 ± 0.12 | – | – |
| QACSLPASCCIDPREDGASVNDQC [TSPAN10] | 5.06 ± 0.27 | 5.11 ± 0.25 | – | – |
| RDSHGKGIPNAIISVEGINHDIRT [CPXM2] | 4.2 ± 0.21 | 4.17 ± 0.27 | – | – |
| DSMEGKRSPYAGLQLGAAKKPPVT [TRIM29] | 4.58 ± 0.35 | 4.52 ± 0.18 | – | – |
| WGRLLEQVGTMALWASQREKEVLR [ZBED2] | 2.18 ± 0.16 | 2.36 ± 0.23 | – | – |
| EEERPLPEKEYQRQVWLLFEYPES [KCNA1] | 3.33 ± 0.12 | 3.63 ± 0.28 | – | – |
| ECLKKFNARRKLKGAILTTMLATR [CAMK2B] | 2.98 ± 0.32 | 2.94 ± 0.29 | – | – |

| Sequence | protein stability index [1] | protein stability index [2] | protein stability index (treatment: DMSO, c terminus: native) | protein stability index (treatment: MLN4924 1 uM, 8 h, c terminus: native) |
| --- | --- | --- | --- | --- |
| TDRIAAAQYSVTGSAVARAVCKAT [SNAP91] | 3.9 ± 0.24 | 3.94 ± 0.19 | – | – |
| VSAATQLRHFFLVEDLVDSLKLAL [RTN2] | 2.56 ± 0.72 | 2.49 ± 0.47 | – | – |
| SENMWNTGSTYNLSSGMAVAGMPT [CARM1] | 3.48 ± 0.15 | 3.63 ± 0.1 | – | – |
| CPCCFGRDCLVLNQGYLSEAGASL [PI4K2A] | 2.44 ± 0.2 | 2.62 ± 0.49 | – | – |
| GTILNYLRDGAVPLPESRREIEEL [KCTD10] | 3.98 ± 0.19 | 4.15 ± 0.073 | – | – |
| FSDDEEDLNSKGKKREFRFHPIKE [INTS3] | 3.48 ± 0.68 | 4.04 ± 0.71 | – | – |
| PAHKNLNKQAYDLAKALLKRTAQA [PDS5B] | 2.22 ± 0.16 | 2.51 ± 0.18 | – | – |
| GRIIAVFKPKNEEPYGHLNPKWTK [PI4K2A] | 2.09 ± 0.24 | 2.2 ± 0.44 | – | – |
| EGHPFKAYLELEITLSQEQIQKYT [RTN1] | 2.33 ± 0.67 | 2.13 ± 0.26 | – | – |
| PAPSPHEEPCSPGLLQDQGSGLSS [CBY2] | 5.31 ± 0.22 | 5.194 ± 0.04 | – | – |
| NEYVAIKLEPIKSRAPQLHLEYRF [CSNK1G1] | 2.31 ± 0.3 | 2.53 ± 0.36 | – | – |
| SNNKKNDEMQEVPNRVLAPEQSLK [SPANXN3] | 5.27 ± 0.16 | 5.36 ± 0.17 | – | – |
| SSEVGPFVSKIRAVINDIANLPVP [AUH] | 2.64 ± 0.25 | 2.62 ± 0.42 | – | – |
| PVQGSSEDNLSLVCLPRSEDDDCD [DRICH1] | 5.62 ± 0.2 | 5.53 ± 0.21 | – | – |
| TSAITASRSESPPPLSDPKQAKVV [BRD3] | 5.24 ± 0.22 | 5.21 ± 0.077 | – | – |
| KRKTFNKVLGHVNNILISAVLPTA [GDAP1] | 2.49 ± 0.14 | 2.42 ± 0.076 | – | – |
| MGVNAVHWFRKGLRLHDNPALKEC [CRY1] | 2.53 ± 0.23 | 2.54 ± 0.31 | – | – |
| NCPEFPPPDRTLGCWATDAAPAAG [RSPH3] | 4.4 ± 0.4 | 4.47 ± 0.3 | – | – |
| LHTDVGSVRMRRAEKSVAPSNTGS [NEK8] | 4.58 ± 0.22 | 4.73 ± 0.14 | – | – |
| RDQHPQPSLGDSLESIPSLSQSPE [RTN2] | 5.44 ± 0.18 | 5.55 ± 0.12 | – | – |
| LMIIVCIDQWKNKIWPEIKVPRPD [RETREG3] | 2.81 ± 0.43 | 2.82 ± 0.45 | – | – |
| IYCGAGVQKDHENYMKILLKVGGI [PCMTD1] | 2.26 ± 0.17 | 2.25 ± 0.44 | – | – |
| GPFGGFFASGFKRAFKIKDFANTI [CDS1] | 2.38 ± 0.31 | 2.44 ± 1 | – | – |

| Sequence | protein stability index [1] | protein stability index [2] | protein stability index (treatment: DMSO, c terminus: native) | protein stability index (treatment: MLN4924 1 uM, 8 h, c terminus: native) |
| --- | --- | --- | --- | --- |
| GDRLQFNQLSQAELDELASKAPVL [EFHC1] | 4.25 ± 0.42 | 4.72 ± 0.36 | – | – |
| TVDKQNISLWPREPPPKSGPSLVP [CD207] | 3.84 ± 0.21 | 3.73 ± 0.082 | – | – |
| GNYMEAKSVLIPVYGVSKETFLSF [RHOBTB3] | 2.69 ± 0.53 | 2.31 ± 0.34 | – | – |
| TPEELEEEIPVVICAAAGRMGATM [GLT8D2] | 4.25 ± 0.26 | 4.29 ± 0.21 | – | – |
| SENIKLREENEKLRLENSSLFSQA [CCDC89] | 4.65 ± 0.08 | 4.58 ± 0.2 | – | – |
| DFEHRPKAPVVECSITGDSSRVIA [WDR88] | 4.36 ± 0.26 | 4.49 ± 0.17 | – | – |
| GPVRPAIPPPLSSVYAWGGGLGTP [NEK8] | 3.18 ± 0.2 | 3.18 ± 0.27 | – | – |
| GHSQPDGAYSSASSFSRPLGYPYV [DLX1] | 3.35 ± 0.14 | 3.17 ± 0.29 | – | – |
| QREEHELVHVMERSLSPSLSSVDM [RAD54B] | 4.62 ± 0.31 | 4.76 ± 0.11 | – | – |
| SQKEMDKAETKTKKAAESLRRSVE [FCHO1] | 5.24 ± 0.29 | 5.23 ± 0.38 | – | – |
| AMKITQEPQGLGYWEAWRHHCQGK [SPACA3] | 3.05 ± 0.18 | 3.17 ± 0.29 | – | – |
| RDYIHSLKLLNVLEEYITDEQKEE [FAM9B] | 3.37 ± 0.38 | 3.52 ± 0.34 | – | – |
| FFTLDLEHIADALRAIDFGTDEEE [TRIM63] | 3.9 ± 0.63 | 4.27 ± 0.26 | – | – |
| TAWTEACQVEVRLLLAYNSSARIP [INTS4] | 3.03 ± 0.4 | 2.43 ± 0.49 | – | – |
| GDNPYMYPEQSKGFHKAGSMLPPV [SPATS1] | 3.37 ± 0.16 | 3.35 ± 0.27 | – | – |
| CQVGGIEALVRTVLRAGDREDITE [CTNNB1] | 3.28 ± 0.46 | 3.21 ± 0.46 | – | – |
| HDGKNQPGVAYPAFLGPDEAFALP [SPSB4] | 4.12 ± 0.3 | 4.06 ± 0.21 | – | – |
| FDCPSELQHTQELFPQWHLPIKIA [STEAP1] | 2.78 ± 0.33 | 2.79 ± 0.38 | – | – |
| DTNLGRLEDGQTPLHLSALRDDVL [ASB7] | 4.59 ± 0.1 | 4.56 ± 0.21 | – | – |
| QAQPAIPRPNRLFLRQLRASHLGN [C2CD2L] | 3.09 ± 0.33 | 3.08 ± 0.27 | – | – |
| FCGATIAGLSLLSPSVMRLVHTQE [ALKBH7] | 3.06 ± 0.44 | 2.71 ± 0.96 | – | – |
| WRLLNPGEYVVTAKAEGFTASTKN [CPXM2] | 3.09 ± 0.43 | 3.03 ± 0.29 | – | – |
| RVKLISNKGTETDNDPSCVHPIIK [PHTF1] | 3.58 ± 0.16 | 3.83 ± 0.35 | – | – |

| Sequence | protein stability index [1] | protein stability index [2] | protein stability index (treatment: DMSO, c terminus: native) | protein stability index (treatment: MLN4924 1 uM, 8 h, c terminus: native) |
| --- | --- | --- | --- | --- |
| GHRYPCFFNTLHVGGTIRTCQKFL [POP5] | 2.23 ± 0.48 | 2.03 ± 0.21 | – | – |
| EKILRELSEEEEDEEEEEEEEEEG [KCNA4] | 5.65 ± 0.2 | 5.69 ± 0.17 | – | – |
| LDVIERDLHRQFPFHEMFVSRGGH [TBC1D10A] | 2.98 ± 0.3 | 2.86 ± 0.21 | – | – |
| FAQALGCVLYACFILGRLCVPVFA [SOAT2] | 3.03 ± 0.6 | 2.64 ± 0.55 | – | – |
| PSVPPTIKEEENSEEELAAATTSK [MYBL2] | 5.52 ± 0.53 | 5.56 ± 0.4 | – | – |
| QVPSGEDQTALSLEECLRLLEATC [NFE2L1] | 4.02 ± 0.98 | 3.96 ± 0.31 | – | – |
| RADVDHAIEKAFQLWSNVTPLTFT [MMP1] | 2.13 ± 0.2 | 2.44 ± 0.32 | – | – |
| AGIREAKAKQEKVSAQYLSEIEMA [FLOT1] | 4.63 ± 0.33 | 4.75 ± 0.14 | – | – |
| SGQYRELGGAIDFGAAYVLEQASS [ATL3] | 3.47 ± 0.27 | 3.61 ± 0.41 | – | – |
| NIPGNSTLITAVELERFVNLHSLA [FBXO33] | 2.27 ± 0.24 | 2.23 ± 0.37 | – | – |
| LLLVAKMSVGHLRLLSHDQVAMPY [JAGN1] | 3.06 ± 0.46 | 2.81 ± 0.21 | – | – |
| RAACFDGHLEIVKYLVEHKADLEV [FEM1C] | 2.59 ± 0.31 | 2.66 ± 0.58 | – | – |
| LYQKQPKIGYHLLYYLRASKAAAG [INTS3] | 2.55 ± 0.31 | 2.25 ± 0.33 | – | – |
| EKAKAFWAMRRSYEAIAKHNQVEA [TRIM35] | 2.83 ± 0.34 | 3.18 ± 0.26 | – | – |
| RNSLSAIFNNVMTLCAMLPLLLFT [SLC29A1] | 3.3 ± 0.65 | 3.33 ± 0.22 | – | – |
| DSLAKEIQYLKDLIEEVRKARGKK [ATF4] | 2.25 ± 0.31 | 2.14 ± 0.44 | – | – |
| TLDPNGKTCSRVDHCAQQDHGCEQ [MATN2] | 4.03 ± 0.25 | 4.16 ± 0.22 | – | – |
| WGCDLGVVTRVVTGVYPRCLHASQ [BRF1] | 2.89 ± 0.8 | 2.3 ± 0.46 | – | – |
| ELEKLAEKNIILEEKIQVLQQQNE [MTUS2] | 4.63 ± 0.32 | 4.53 ± 0.22 | – | – |
| KFLMARKFDVLRAIELFHSYRETR [PTPN9] | 2.29 ± 0.54 | 2.15 ± 0.15 | – | – |

From the supplement of paper PMC10567573
